T1: myristoylated Gal3p (Myr-Gal3p) (yeast, UniProt P13045 1-520, limits assumed, N-myristoylation (acylation) at the N-terminal signal)
T1 construct: also called membrane-associated Gal3p
T1 sequence: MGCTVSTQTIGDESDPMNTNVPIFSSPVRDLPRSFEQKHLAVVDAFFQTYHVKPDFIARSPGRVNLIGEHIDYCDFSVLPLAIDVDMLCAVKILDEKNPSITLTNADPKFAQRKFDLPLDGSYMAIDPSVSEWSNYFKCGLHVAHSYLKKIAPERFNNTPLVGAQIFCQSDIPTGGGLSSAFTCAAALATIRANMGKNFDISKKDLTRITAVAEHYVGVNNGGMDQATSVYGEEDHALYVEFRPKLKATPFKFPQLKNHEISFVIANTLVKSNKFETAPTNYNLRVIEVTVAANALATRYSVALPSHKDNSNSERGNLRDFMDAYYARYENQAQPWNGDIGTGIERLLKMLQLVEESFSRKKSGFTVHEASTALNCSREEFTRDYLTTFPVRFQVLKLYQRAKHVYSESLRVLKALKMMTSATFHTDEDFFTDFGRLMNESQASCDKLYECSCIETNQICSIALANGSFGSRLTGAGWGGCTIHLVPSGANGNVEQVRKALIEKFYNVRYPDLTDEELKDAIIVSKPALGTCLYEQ

B1: Gal80-GFP (other, yeast, UniProt P04387 1-435, looked up)
chain: MDYNKRSSVSTVPNAAPIRVGFVGLNAAKGWAIKTHYPAILQLSSQFQITALYSPKIETSIATIQRLKLSNATAFPTLESFASSSTIDMIVIAIQVASHYEVVMPLLEFSKNNPNLKYLFVEWALACSLDQAESIYKAAAERGVQTIISLQGRKSPYILRAKELISQGYIGDINSIEIAGNGGWYGYERPVKSPKYIYEIGNGVDLVTTTFGHTIDILQYMTSSYFSRINAMVFNNIPEQELIDERGNRLGQRVPKTVPDHLLFQGTLLNGNVPVSCSFKGGKPTKKFTKNLVIDIHGTKGDLKLEGDAGFAEISNLVLYYSGTRANDFPLANGQQAPLDPGYDAGKEIMEVYHLRNYNAIVGNIHRLYQSISDFHFNTKKIPELPSQFVMQGFDFEGFPTLMDALILHRLIESVYKSNMMGSTLNVSNISHYSL
notes: Order of parts follows the name Gal80-GFP; also called Gal80p fused to green fluorescent protein; not shown: green fluorescent protein (GFP amplified from pYGFP1)
B2: Gal80p (other, yeast, UniProt P04387 1-435, looked up)
chain: B1 chain
B3: wild type Gal3p (other, yeast, UniProt P13045 1-520, looked up)
chain: MNTNVPIFSSPVRDLPRSFEQKHLAVVDAFFQTYHVKPDFIARSPGRVNLIGEHIDYCDFSVLPLAIDVDMLCAVKILDEKNPSITLTNADPKFAQRKFDLPLDGSYMAIDPSVSEWSNYFKCGLHVAHSYLKKIAPERFNNTPLVGAQIFCQSDIPTGGGLSSAFTCAAALATIRANMGKNFDISKKDLTRITAVAEHYVGVNNGGMDQATSVYGEEDHALYVEFRPKLKATPFKFPQLKNHEISFVIANTLVKSNKFETAPTNYNLRVIEVTVAANALATRYSVALPSHKDNSNSERGNLRDFMDAYYARYENQAQPWNGDIGTGIERLLKMLQLVEESFSRKKSGFTVHEASTALNCSREEFTRDYLTTFPVRFQVLKLYQRAKHVYSESLRVLKALKMMTSATFHTDEDFFTDFGRLMNESQASCDKLYECSCIETNQICSIALANGSFGSRLTGAGWGGCTIHLVPSGANGNVEQVRKALIEKFYNVRYPDLTDEELKDAIIVSKPALGTCLYEQ
B4: Myr-Gal4AD (other, yeast)
chain: MGCTVSTQTIGDESDPPLTPSALFGGANFNQSGNIADSSLSFTFTNSSNGPNLITTQTNSQALSQPIASSNVHDNFMNNEITASKIDDGNNSKPLSPGWTDQTAYNAFGITTGMFNTTTMDDVYNYLFDDEDTPPNPKKE
modifications: N-myristoylation at the N-terminal signal
notes: range 758-881; also called membrane-localized Gal4AD

Test [1] deals with T1, myristoylated Gal3p (Myr-Gal3p). Description: fluorescence microscopy of yeast Sc786 co-expressing Gal80-GFP and Myr-Gal3p, galactose induced.
The target in a further test is Gal4p (yeast, UniProt P04386 1-881). In words: formaldehyde cross-linking and chromatin immunoprecipitation at UASGAL, wild type yeast, un-induced and galactose induced. The procedure:
Fold enrichments are indicated (enrichment). […] FIG. 3C illustrates quantitation of promoter occupancy by Gal4p, Gal80p and Gal3p in un-induced and induced cells. Values are means (±standard deviation) of at least five experiments carried out with two sets of independently prepared chromatin samples.
Chromatin immunoprecipitations were performed as described by Braunstein et al., 1993, Genes Dev. 7: 592-604 and Kuras et al. 1999, Nature 399: 609-613. Briefly, wild type Sc723 cells (Blank et al., 1997, Mol. Cell. Biol. 17: 2566-2575) were grown to early exponential growth phase (as measured by absorbance at 600 nm ˜0.4) in 250 mL yeast extract-peptone medium containing 2% glycerol, 3% lactic acid, and 0.05% glucose (−galactose, un-induced). For galactose-induced cultures, galactose was added to the un-induced cultures to a final concentration of 2% and the cultures were incubated for an additional 20 minutes. Formaldehyde was added to a final concentration of 1%, the cultures were incubated for 20 minutes at room temperature, and glycine was added to a final concentration of 300 mM. All the following steps were carried out at 4° C. Cells were washed twice with TBS (20 mM Tris-HCl, 150 mM NaCl, pH 8.0), resuspended in 1 mL lysis buffer (50 mM Tris-HCl pH 8.0, 10 mM EDTA, 1% SDS, 1 mM PMSF), and disrupted by vortexing with glass beads. […]

The target in the test “wild type Gal3p” is B3. Description: conclusion from Examples 1-3 (localisation, reporter induction, chromatin immunoprecipitation) in yeast with galactose.
Test [2] addresses B2. In words: cell-based or functional assay.
For test [3], the target named is B2. Description: membrane-tethered Gal4AD in yeast with a UASGAL-HIS3 reporter, growth without galactose. The text has this: FIG. 7. Membrane targeted transcriptional activation domain of Gal4p (Gal4AD; a.a. 758-881) activates HIS3 reporter gene expression. A yeast strain harboring a UASGAL-HIS3 reporter was transformed with Myr-Gal4AD. […] Transformed cells were spotted on synthetic medium plates lacking histidine, tryptophan and uracil and containing 3% glycerol/2% lactic acid as carbon source.

Chain of Gal4p (P04386 whole entry, the tested form may be a part): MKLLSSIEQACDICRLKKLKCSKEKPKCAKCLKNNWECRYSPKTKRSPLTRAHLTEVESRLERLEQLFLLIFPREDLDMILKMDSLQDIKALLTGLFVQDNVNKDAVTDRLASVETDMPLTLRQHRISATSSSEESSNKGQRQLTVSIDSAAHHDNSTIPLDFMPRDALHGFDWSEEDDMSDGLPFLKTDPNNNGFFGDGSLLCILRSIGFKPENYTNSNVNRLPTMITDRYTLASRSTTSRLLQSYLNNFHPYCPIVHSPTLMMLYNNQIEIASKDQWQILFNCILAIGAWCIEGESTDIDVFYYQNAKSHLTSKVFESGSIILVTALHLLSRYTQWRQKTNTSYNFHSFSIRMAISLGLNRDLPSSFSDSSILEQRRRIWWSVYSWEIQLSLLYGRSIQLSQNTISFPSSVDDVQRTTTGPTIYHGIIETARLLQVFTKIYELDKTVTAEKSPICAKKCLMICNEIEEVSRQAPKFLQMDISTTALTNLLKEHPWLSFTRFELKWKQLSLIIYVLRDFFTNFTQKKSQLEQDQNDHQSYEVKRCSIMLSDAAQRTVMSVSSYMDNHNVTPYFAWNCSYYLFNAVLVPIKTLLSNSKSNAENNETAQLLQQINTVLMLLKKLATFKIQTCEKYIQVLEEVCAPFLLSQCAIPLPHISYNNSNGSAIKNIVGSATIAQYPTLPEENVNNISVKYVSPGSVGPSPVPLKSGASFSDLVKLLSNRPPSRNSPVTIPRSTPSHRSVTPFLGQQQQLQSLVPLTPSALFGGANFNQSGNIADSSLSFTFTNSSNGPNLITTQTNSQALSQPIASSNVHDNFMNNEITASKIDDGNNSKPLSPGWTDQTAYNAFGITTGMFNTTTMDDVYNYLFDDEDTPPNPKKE

B1: the binding result in test [1] is on record as “binds”.

B2: the binding result with Gal4p and in the test with wild type Gal3p was “binds” each time. Regarding B3, the “reduction in MEL1 gene expression level” value with Gal80p [2] turned out to be 2 fold. Turning to B4, the binding result in the test with Gal80p [3] is given as “binds”.

Source of the values: patent US20050048477A1 (published 2005).
